Results on two molecules are retold here after patent publication US20190076445A1 (UNIVERSITY OF CINCINNATI, published 2019).

This test deals with T1, human FcϵRIα (human, UniProt P12319 26-257).
T1 construct: whole, on cells; also called huFcϵRIα
T1 sequence (looked up): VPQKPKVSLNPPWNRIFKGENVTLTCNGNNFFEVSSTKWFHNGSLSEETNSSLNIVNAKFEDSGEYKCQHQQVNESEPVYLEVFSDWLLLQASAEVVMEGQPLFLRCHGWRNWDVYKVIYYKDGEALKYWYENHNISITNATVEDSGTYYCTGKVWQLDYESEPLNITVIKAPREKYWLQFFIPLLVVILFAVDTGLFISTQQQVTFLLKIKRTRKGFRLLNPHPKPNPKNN
The experiment in a line: summary of Examples 1-7 (huFcϵRIα mice, peritoneal mast cells, flow cytometry).

B1: IB10 (antibody, V domains shown)
VH: QVQLQQPGAELVRPGASVKLSCKASGYSFTSYWMNWVNQRPGQGLEWIGMIHPSDSETRLNPNFKDRATLTVDKSSSTAYMQLSSPTSEDSAVYYCARGSLYDGYLFLYWGQGTLVTVSA
VL: DIVMTQSPLSLPVSLGDQASISCRSSQSILHSNGDTYLEWYLQKPGQSPKLLIYKVSNRFSGVPDRFSGSGSGTDFTLKISRVEAEDLGVYYCFQGSYVPFTFGSGTKLEIKR
notes: mAb from a hybridoma (ATCC PTA-125116); also called anti-FcϵRIα monoclonal antibody IB10; anti-huFcϵRIα mAb
In the case of B1, the binding result was “binds”.

B2: IE7 (antibody, mouse IgG1, V domains shown)
VH: QVQLQESGGDVVKPGGSLKLSCAASGFTFSFYGMSWVRQTPDKKLEWVATISGGGNYTYYPDSVKGRFTISRDNAMNTLYLQMNSLKSEDTAMYYCVRAYYGNWNSYWGQGTLVTVS
VL: DIVMTQTPSSMYASLGERVTITCKASQDINNYLSWFQQKPGRSPKTLIYRANRLMDGVPSRIRGSGSGQDYSLTISSLEYEDMGIYYCLLYNEFPWMFGGGTKLEIKR
notes: Mouse IgG1 mAb from a hybridoma (ATCC PTA-125115); also called anti-FcϵRIα monoclonal antibody IE7; anti-huFcϵRIα mAb
Turning to B2, the binding result was “binds”.
